The values that follow come from paper PMC6163455, “β-Lactamase Tools for Establishing Cell Internalization and Cytosolic Delivery of Cell Penetrating Peptides” (Biomolecules, 2018).

B1: 1788_SpyT (peptide)
peptide: LFVDKATPQIYYTPSESVTVKSKGKNRRKKSGASAHIVMVDAYKPTKG
notes: phylomer CPP 1788, discovered from phylomer peptide libraries; source: synthetic peptide (Pepscan or Mimotopes)
B2: 0167_SpyT (peptide)
peptide: PSSTPATNVARPRLNPIRGHKFALAVPNSRTRGASAHIVMVDAYKPTKG
notes: phylomer CPP 0167, discovered from phylomer peptide libraries; source: synthetic peptide (Pepscan or Mimotopes)
B3: 0084_SpyT (peptide)
peptide: RKQKSLQTKLAENPPVPRKKRQSRPRWKQWLQKGASAHIVMVDAYKPTKG
notes: phylomer CPP 0084, discovered from phylomer peptide libraries; source: synthetic peptide (Pepscan or Mimotopes)
B4: TAT_SpyT (peptide)
peptide: GRKKRRQRRRGASAHIVMVDAYKPTKG
notes: canonical CPP TAT; source: synthetic peptide (Pepscan or Mimotopes)
B5: 1746c27_SpyT (peptide)
peptide: KKKKQPPKPKKPKTQEKKKKQPPKPKRGASAHIVMVDAYKPTKG
notes: phylomer CPP 1746c27, discovered from phylomer peptide libraries; source: synthetic peptide (Pepscan or Mimotopes)
B6: 0169_SpyT (peptide)
peptide: PLTQRTLQRGKKPKQRQNWKKARTSSAKTAPKTVVSRTTSQRKGASAHIVMVDAYKPTKG
notes: phylomer CPP 0169, discovered from phylomer peptide libraries; source: synthetic peptide (Pepscan or Mimotopes)
B7: 1869_SpyT (peptide)
peptide: PPHPRPLPAPAQSRKKQKGRAGRGHEKTGASVLRGPQKPHPLPAQLRGASAHIVMVDAYKPTKG
notes: phylomer CPP 1869, discovered from phylomer peptide libraries; source: synthetic peptide (Pepscan or Mimotopes)
B8: 1746_SpyT (peptide)
peptide: PLKPKKPKTQEKKKKQPPKPKKPKTQEKKKKQPPKPKRGASAHIVMVDAYKPTKG
notes: source: synthetic peptide (Pepscan or Mimotopes)

This assay addresses T1, SpyCatcher_β-lactamase protein ( | E. coli).
T1 construct: N-terminal leader as printed; TEM-1 β-lactamase of Escherichia coli without its signal peptide; C-terminal tail as printed; Printed mass 42.4 kDa; also called SpyC_β-lactamase; source: E. coli BL21 (DE3) Gold, purified (IMAC, SEC)
In words: SpyTag/SpyCatcher covalent conjugation (isopeptide bond), analysed by SDS-PAGE; peptide:protein ratio 1.125:1 or 1.25:1, 50 µM SpyC_BLA; 50 mM HEPES, 200 mM NaCl, pH 7.0; 2 h at room temperature and/or overnight at 4 °C; conjugation efficiencies analysed on 4-12% NuPAGE Bis-Tris gels; conjugates then used for uptake into CHO-K1 and T47D cells. The note with it: both partners purified.
As to B1, the binding result is reported as “binds”.
Next, B2: “binds”.
As for B3, the entry is “binds”; as for B4, “binds”.
As for B5, the entry is “binds”; as for B6, “binds”; as for B7, “binds”.
In the case of B8, the binding result is reported as “binds”.
